Measurements taken from patent US20240343803A1 (SHANDONG SIMCERE BIOPHARMACEUTICAL, published 2024).
Where a chain is given by its changes, count along the chain named. Read-outs that look alike come from different tables or passages of the source.

T1: Fusion protein of extracellular domain of human TIGIT and His-tag (human TIGIT ECD-his) (human)
T1 chain: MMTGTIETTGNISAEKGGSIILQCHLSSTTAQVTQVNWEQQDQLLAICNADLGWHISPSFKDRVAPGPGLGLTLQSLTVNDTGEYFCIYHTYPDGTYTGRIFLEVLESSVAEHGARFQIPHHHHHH

T2: Fusion protein of extracellular domain of human TIGIT and mouse IgG2a Fc fragment (human TIGIT ECD-mFc) (human)
T2 construct: The entry includes the signal peptide (limits not recoverable) and the mouse IgG2a Fc
T2 chain: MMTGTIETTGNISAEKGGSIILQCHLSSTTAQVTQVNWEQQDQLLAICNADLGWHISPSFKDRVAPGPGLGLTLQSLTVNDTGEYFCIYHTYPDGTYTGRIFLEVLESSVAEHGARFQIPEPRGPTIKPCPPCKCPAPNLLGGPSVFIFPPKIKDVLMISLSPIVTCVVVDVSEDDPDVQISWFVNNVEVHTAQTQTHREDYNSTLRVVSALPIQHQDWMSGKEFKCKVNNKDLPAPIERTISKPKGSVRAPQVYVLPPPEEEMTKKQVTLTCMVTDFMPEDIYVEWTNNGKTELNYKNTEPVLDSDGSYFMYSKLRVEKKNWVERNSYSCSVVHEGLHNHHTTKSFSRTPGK

T3: Full-length human TIGIT on CHO-K1 cells (CHO-K1 human TIGIT) (human, UniProt Q495A1 22-244)
T3 construct: NCBI XP_024309156.1; the entry includes the signal peptide (limits not recoverable); The strain (high, medium, low) is named under assay; also called high expression strain 1D2; medium expression strain 2D10
T3 sequence: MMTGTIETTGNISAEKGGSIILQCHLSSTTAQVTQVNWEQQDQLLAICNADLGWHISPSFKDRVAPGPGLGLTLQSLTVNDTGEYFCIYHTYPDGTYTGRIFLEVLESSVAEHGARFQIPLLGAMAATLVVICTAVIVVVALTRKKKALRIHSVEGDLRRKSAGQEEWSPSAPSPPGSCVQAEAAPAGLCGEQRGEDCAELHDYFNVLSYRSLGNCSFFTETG

T4: human TIGIT ECD-mFc (human)
T4 construct: also called human TIGIT protein; fusion protein of extracellular domain of human TIGIT and mouse IgG2a Fc fragment
T4 chain: T2 chain

B1: TIGIT-070-H2L1 (antibody, V domains shown)
VH: EVQLVQSGAEVKKPGASVKVSCKASGYTFTNYYMHWVRQAPGQRLEWMGRIDPDSGGSKYNEKFKSRVTITVDKLSSTAYMELSSLRSEDTAVYYCAREGHYGFYSDYWGQGTTVTVSS
VL: DIQMTQSPSSLSASVGDRVTITCRVSENIYSYLAWYQQKPGKSPKLLIYNAKTLAEGVPSRFSGSGSGTDFTLTISSLQPEDFATYYCQHHYGNPLTFGPGTKVDIK
notes: Humanized anti-TIGIT antibody
B2: TIGIT-070-H2L3 (antibody, V domains shown)
VH: B1 VH
VL: DIVMTQSPDSLAVSLGERATINCRVSENIYSYLAWYQQKPGQSPKLLVYNAKTLAEGVPDRFSGSGSGTDFTLTISSLQAEDVAVYYCQHHYGNPLTFGPGTKVDIK
notes: Humanized anti-TIGIT antibody
B3: TIGIT-070-H2L2 (antibody, V domains shown)
VH: B1 VH
VL: B1 VL with I48V
notes: Humanized anti-TIGIT antibody
B4: TIGIT-070-H3L1 (antibody, V domains shown)
VH: B1 VH with R44G
VL: B1 VL
notes: Humanized anti-TIGIT antibody
B5: TIGIT-070-H1L2 (antibody, V domains shown)
VH: B1 VH with L75S, S76A
VL: B1 VL with I48V
notes: Humanized anti-TIGIT antibody
B6: TIGIT-070-H1L3 (antibody, V domains shown)
VH: B1 VH with L75S, S76A
VL: B2 VL
notes: Humanized anti-TIGIT antibody
B7: TIGIT-070-H3L3 (antibody, V domains shown)
VH: B1 VH with R44G
VL: B2 VL
notes: Humanized anti-TIGIT antibody
B8: TIGIT-070-H3L2 (antibody, V domains shown)
VH: B1 VH with R44G
VL: B1 VL with I48V
notes: Humanized anti-TIGIT antibody
B9: RG6058-hIgG1 (antibody, V domains shown)
VH: EVQLQQSGPGLVKPSQTLSLTCAISGDSVSSNSAAWNWIRQSPSRGLEWLGKTYYRFKWYSDYAVSVKGRITINPDTSKNQFSLQLNSVTPEDTAVFYCTRESTTYDLLAGPFDYWGQGTLVTVSS
VL: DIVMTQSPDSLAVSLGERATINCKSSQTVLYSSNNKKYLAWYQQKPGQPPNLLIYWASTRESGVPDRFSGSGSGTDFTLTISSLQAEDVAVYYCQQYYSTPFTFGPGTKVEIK
notes: Anti-TIGIT positive control; also called Roche RG6058
B10: TIGIT-002-H4L3 (antibody, V domains shown)
VH: EVQLQESGPGLVKPSETLSLTCAVSGYSITSDSWNWIRQPPGKKLEYIGYISYSGNTYYNPSLKSRVTISRDTSKNQFSLKLSSVTAADTAVYYCARLDFSNYGGAVDYWGQGTTVTVSS
VL: DIVMTQSPDSLAVSLGERATINCKASQNVRTAVAWYQQKPGQSPKLMIYSASYRYTGVPDRFSGSGSGTDFTLTISSLQAEDVAVYYCQQYYTTPWTFGGGTKVEIK
B11: TIGIT-005-H2L1d (antibody, V domains shown)
VH: EVQLVQSGAEVKKPGASVKVSCKASGYAFTNYLIEWVRQAPGQRLEWMGVINPGSGGTNYKEKFKGRVTITADKSSSTAYMELSSLRSEDTAVYYCARGEYFFFDYWGQGTTVTVSS
VL: B10 VL with N28H, R30S, T31N, Q38H, M47L, Y91H, T93N, W96H

Legend:
[1] = biological target: T1, Fusion protein of extracellular domain …; test: BIAcore
[2] = biological target: T2, Fusion protein of extracellular domain …; test: ELISA, human TIGIT ECD-mFc
In short: (§1)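 Antibodies diluted to 13 nM in 1% BSA, then 3-fold serial dilution for 12 concentrations, incubated with milk-blocked plates at 37° C for 1.5-2 h. Bound antibody detected with HRP-labelled secondary antibody (1:5000, 37° C, 1 h) and TMB, stopped with 1M HCl; OD450 nm read.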

[3] = biological target: T1, Fusion protein of extracellular domain …; test: BIAcore; KD ratio to TIGIT-CHI-070
[4] = biological target: T5, Fusion protein of extracellular domain of cynomolgus monkey TIGIT and mouse IgG2a Fc fragment (cynomolgus … (cynomolgus monkey)); test: ELISA, cynomolgus monkey TIGIT ECD-mFc
T5 construct: The entry includes the signal peptide (limits not recoverable) and the mouse IgG2a Fc
T5 sequence (chain, as listed by the source limits assumed): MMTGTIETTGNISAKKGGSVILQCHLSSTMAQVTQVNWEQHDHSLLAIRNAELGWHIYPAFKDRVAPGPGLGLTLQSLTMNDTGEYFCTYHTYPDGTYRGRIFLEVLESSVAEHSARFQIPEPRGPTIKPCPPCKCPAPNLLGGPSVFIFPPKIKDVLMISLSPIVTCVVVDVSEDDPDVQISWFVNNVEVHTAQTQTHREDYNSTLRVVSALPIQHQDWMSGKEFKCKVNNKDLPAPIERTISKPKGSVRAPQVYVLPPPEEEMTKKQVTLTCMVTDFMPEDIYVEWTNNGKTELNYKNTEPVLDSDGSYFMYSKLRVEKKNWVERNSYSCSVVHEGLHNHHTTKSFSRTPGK
In short: as §1

[5] = biological target: T6, Full-length cynomolgus monkey TIGIT on CHO-K1 cells (CHO-K1 cynomolgus monkey TIGIT) (cynomolgus monkey); test: cell binding, CHO-K1 cynomolgus monkey TIGIT
T6 construct: NCBI XP_015300911.1
T6 sequence (chain, as listed by the source limits assumed): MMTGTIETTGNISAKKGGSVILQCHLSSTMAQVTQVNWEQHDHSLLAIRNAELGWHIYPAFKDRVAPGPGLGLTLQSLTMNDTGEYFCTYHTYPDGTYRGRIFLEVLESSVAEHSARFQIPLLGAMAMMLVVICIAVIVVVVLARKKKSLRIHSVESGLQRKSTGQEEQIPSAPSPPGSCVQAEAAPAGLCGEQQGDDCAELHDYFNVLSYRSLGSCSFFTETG
In short: (§2)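 Binding was measured by flow cytometry after a 60-minute, 4° C incubation of the antibodies with 2×10⁵ CHO-K1 cells displaying full-length human or cynomolgus monkey TIGIT. Antibody titration: 12 points, threefold serial dilution from 80 nM, in 1% BSA-PBS.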

[6] = biological target: T7, Fusion protein of extracellular domain of human TIGIT and human IgG1 Fc fragment (human TIGIT ECD-hFc) (human); test: blocking of TIGIT ECD-hFc binding to CHO-K1 CD155 cells
T7 construct: The entry includes the signal peptide (limits not recoverable) and the human IgG1 Fc
T7 sequence (chain, as listed by the source limits assumed): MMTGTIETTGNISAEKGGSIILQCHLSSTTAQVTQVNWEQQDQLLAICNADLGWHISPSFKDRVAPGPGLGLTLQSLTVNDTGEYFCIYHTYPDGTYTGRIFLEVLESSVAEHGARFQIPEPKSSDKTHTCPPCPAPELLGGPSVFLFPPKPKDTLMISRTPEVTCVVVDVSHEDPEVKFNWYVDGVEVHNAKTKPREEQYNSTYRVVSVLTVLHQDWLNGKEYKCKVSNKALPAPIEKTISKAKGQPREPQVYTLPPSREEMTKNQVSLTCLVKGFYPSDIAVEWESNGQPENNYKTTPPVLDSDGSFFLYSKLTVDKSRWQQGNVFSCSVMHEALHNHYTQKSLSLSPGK
In short: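 Inhibition was expressed as IC50 values derived from the inhibition curves of a cell-based ELISA. CHO-K1 CD155 cells were cultured overnight, fixed, and blocked with 5% skim milk-PBS. Antibodies were first premixed for 0.5 h with human TIGIT ECD-hFc at a working concentration of 30 ng/mL, and the mixture was then added to the cells for 1.5-2 h at 37° C. Bound TIGIT was detected with HRP secondary antibody (1:5000, 37° C, 1 h) and TMB, and read as OD450 nm.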

[7] = biological target: T3, Full-length human TIGIT on CHO-K1 cells …; test: cell binding, CHO-K1 human TIGIT high expression strain
In short: as §2

human TIGIT ECD-mFc [8] = biological target: T4, human TIGIT ECD-mFc; test: ELISA, human TIGIT ECD-mFc captured by anti-mouse IgG
Method: (§3) After washing with blocking buffer, the plate was added with 50 μL/well of 30 ng/ml human TIGIT ECD-mFc (in house) or cynomolgus monkey TIGIT ECD-mFc (in house) and incubated at 37° C. for 2.0 hours. After washing the plate, the serial diluted antibodies (initial concentration 13 nM, 3-fold serial dilution, 12 concentration points) were added into the plate (50 μL/well) and incubated at 37° C. for 2.0 hours. After washing the plate, the goat anti-human IgG Fc-HRP (Merck, Cat NO. AP113P)) working solution (dilution ratio 1:5000, 50 μL/well) were added into wells and incubated at 37° C. for 1.0 hour. A HRP substrate, TMB (KPL, Cat NO. 5120-0077) was added into wells after washing the plate again for color development. After adding a termination solution to terminate the reaction, the absorbance value was read by a microplate reader (PE, Ensight-HH3400). An antibody binding curve was drawn with molar concentration of antibodies as the abscissa and the corresponding OD value as the ordinate. The EC50 value was calculated by using a Four Parameter Logistic Fit (GraphPad Prism9). […] The positive control antibodies are RG6058-hIgG1, TIGIT-002-H4L3 and TIGIT-005-H2Lld; and the negative control antibodies are anti-Fluorescein-hIgG1 (in house). The binding results of the 4 humanized bispecific antibodies to human TIGIT protein are shown in FIG. 43 and Tables 42 and 43, and the binding results to cynomolgus monkey TIGIT are shown in FIG. 44 and Tables 42 and 43.

human TIGIT ECD-mFc [9] = biological target: T4, human TIGIT ECD-mFc; test: as above
Method: as §3

[10] = biological target: T8, cynomolgus monkey TIGIT ECD-mFc (cynomolgus monkey); test: ELISA, cynomolgus TIGIT ECD-mFc captured by anti-mouse IgG
T8 construct: also called cynomolgus monkey TIGIT protein
Method: as §3

[11] = biological target: T8, cynomolgus monkey TIGIT ECD-mFc; test: as above; remark: listed apart in the source
Method: as §3

| Binder | Kd [1] [pM] | koff [1] [s⁻¹] | kon [1] [M⁻¹ s⁻¹] | EC50 [2] [pM] | Fold change vs chimeric antibodies (KD) [3] [fold] | EC50 [4] [pM] | EC50 [5] [pM] | IC50 [6] [pM] | EC50 [7] [pM] | other results |
| --- | --- | --- | --- | --- | --- | --- | --- | --- | --- | --- |
| B1 | 80.8 | 0.000134 | 1.66e+06 | 12.9 | 0.82 | 12.4 | 79.9 | 393 | 23.6 | – |
| B2 | 75.6 | 0.000134 | 1.77e+06 | 11.9 | 0.77 | 11.9 | 77.4 | 350 | 20.9 | – |
| B3 | 85.1 | 0.000142 | 1.67e+06 | 12.5 | 0.87 | 11.2 | 66.2 | 448 | 31.2 | – |
| B4 | 121 | 0.000152 | 1.26e+06 | 13.1 | 1.23 | 13.9 | 74.1 | 463 | 13.2 | – |
| B5 | 88.3 | 0.000148 | 1.67e+06 | 11.8 | 0.9 | 11.6 | 87.9 | 421 | 27.2 | – |
| B6 | 72.4 | 0.000129 | 1.78e+06 | 14.8 | 0.74 | 13.7 | 112 | 445 | 24 | – |
| B7 | 115 | 0.000151 | 1.31e+06 | 15.1 | 1.17 | 14.2 | 55.6 | 417 | 30 | – |
| B8 | 129 | 0.000168 | 1.3e+06 | 14.3 | 1.32 | 15.7 | 66.5 | 423 | 27.6 | – |
| B9 | – | – | – | – | – | – | – | – | – | % relative activity RG6058-hIgG1/tested antibody (human TIGIT ECD-mFc [8]): 100%; % relative activity TIGIT-002-H4L3/tested antibody (human TIGIT ECD-mFc [8]): 74.3%; EC50 (human TIGIT ECD-mFc [8]): 50.4 pM; % relative activity RG6058-hIgG1/tested antibody (human TIGIT ECD-mFc [9]): 100%; % relative activity TIGIT-005-H2L1d/tested antibody (human TIGIT ECD-mFc [9]): 85.2%; EC50 (human TIGIT ECD-mFc [9]): 50.4 pM; % relative activity RG6058-hIgG1/tested antibody [10]: 100%; % relative activity TIGIT-002-H4L3/tested antibody [10]: 90%; EC50 [10]: 46 pM; % relative activity RG6058-hIgG1/tested antibody [11]: 100%; % relative activity TIGIT-005-H2L1d/tested antibody [11]: 96.8%; EC50 [11]: 46 pM |
| B10 | – | – | – | – | – | – | – | – | – | % relative activity RG6058-hIgG1/tested antibody (human TIGIT ECD-mFc [8]): 135%; % relative activity TIGIT-002-H4L3/tested antibody (human TIGIT ECD-mFc [8]): 100%; EC50 (human TIGIT ECD-mFc [8]): 37.4 pM; % relative activity RG6058-hIgG1/tested antibody [10]: 111%; % relative activity TIGIT-002-H4L3/tested antibody [10]: 100%; EC50 [10]: 41.5 pM |
| B11 | – | – | – | – | – | – | – | – | – | % relative activity RG6058-hIgG1/tested antibody (human TIGIT ECD-mFc [9]): 117%; % relative activity TIGIT-005-H2L1d/tested antibody (human TIGIT ECD-mFc [9]): 100%; EC50 (human TIGIT ECD-mFc [9]): 42.9 pM; % relative activity RG6058-hIgG1/tested antibody [11]: 103%; % relative activity TIGIT-005-H2L1d/tested antibody [11]: 100%; EC50 [11]: 44.6 pM |
